This is an account of results in paper PMC3621891, “Structural Insights into Omega-Class Glutathione Transferases: A Snapshot of Enzyme Reduction and Identification of a Non-Catalytic Ligandin Site” (PLoS ONE, 2013).

The series deals with the molecule itself. The series can be described thus: crystal structure; hanging-drop vapour diffusion at 4°C, 2.2 M ammonium sulfate, 100 mM sodium acetate pH 4.25 and 4.75; crystals soaked with 4NPG (one also with GSH); one protomer in the asymmetric unit, dimer by crystallographic two-fold.

B1: hGSTO1-1 C32A mutant (human omega-class glutathione transferase 1-1, active-site mutant) (enzyme)
chain: MSGESARSLGKGSAPPGPVPEGSIRIYSMRFAPFAERTRLVLKAKGIRHEVININLKNKPEWFFKKNPFGLVPVLENSQGQLIYESAITCEYLDEAYPGKKLLPDDPYEKACQKMILELFSKVPSLVGSFIRSQNKEDYAGLKEEFRKEFTKLEEVLTNKKTTFFGGNSISMIDYLIWPWFERLEAMKLNECVDHTPKLKLWMAAMKEDPTVSALLTSEKDWQGFLELYLQNSPEACDYGL
notes: human glutathione transferase omega 1 (hGSTO1), C32A active-site mutant; after cleavage no additional N-terminal residues; residues 4 to 241 are seen in the final model; Homodimer; the dimer is produced by two-fold crystallographic symmetry (one protomer in the asymmetric unit); Crystals held GSSG, 4NPG, DTT and sulfate; source: E. coli BL21 (DE3), purified (Ni-NTA agarose, cleavage by …)
B1: the binding result was “binds”.
